From patent US20180319855A1, “GENETICALLY MUTATED AEQUORIN-BASED BIOSENSORS WITH EXTRA SENSITIVITY TO CALCIUM AND IMPROVED BIOLUMINESCENCE INTENSITY” (CENTRE NATIONAL DE LA RECHERCHE SCIENTIFIQUE (CNRS), priority 2015, published 2018) come the findings set out here.

“And” between values parts separate entries of the source, which are not always exact repeats. Equal values may be shown once. Read-outs that look alike come from different tables or passages of the source.

The test system of one data set is endogenous P2Y2 receptor. The data set is described as follows: Assay of activation of endogenous P2Y2 receptor by ATP in CHO cells stably expressing photoproteins. The class given is cell-based. Conditions: CHO cells stably expressing the sensor; for EC50: ATP dose-response, read-out: EC50 (half-maximal effective concentration of ATP for P2Y2 activation). The protocol: Stably prepared CHO cells were loaded with 5 μM coelenterazine in 130 mM NaCl, 5 mM KCl, 1 mM MgCl2, 2 mM CaCl2, 5 mM NaHCO3, 20 mM N-(2-hydroxyethyl) piperazine-N′-ethanesulfonic acid (HEPES), pH 7.4 for 4 h at ambient temperature.
To produce stable CHO cell lines, the cells transfected with GA and Redquorin variant plasmids were seeded on six-well plates and grown in the same medium with addition of Geneticin sulfate (G418) (Gibco, UK) at 1 mg/ml under the same conditions with replacement of the medium by fresh medium every 2 days. After 7-10 days of selection, CHO cells were transferred into a medium without antibiotic. To select clones with the highest bioluminescence activity, one run of limiting dilution was performed. CHO cells after G418 selection were seeded on 96-well plates (approximately 0.5 cells per well) and grown in DMEM/F12 medium supplemented with 10% fetal calf serum at 37° C., 5% CO2 for up to 80-90% confluence. Before the bioluminescence measurements, the plates with monoclones of CHO cells expressing the corresponding photoprotein were duplicated and grown for up to 90-100% confluence. Then, the medium was removed and cells were loaded with coelenterazine, and bioluminescence in each well was measured according to the procedure described earlier. As a result, the CHO cell clones with the highest bioluminescence activity were selected.
Assay of Activation of Endogenous P2Y2 Receptor in CHO Cells
The CHO cell lines stably expressing each photoprotein were used in assay of activation of endogenous P2Y2 receptor by ATP. The day before the measurements, the corresponding cells were seeded on 96-well plates with DMEM/F12 medium supplemented with 10% fetal calf serum and were grown at 37° C. with 5% CO2 for up to 90-100% confluence. Then, the medium was replaced by 100 μl of coelenterazine solution per well (5 μM coelenterazine in 130 mM NaCl, 5 mM KCl, 1 mM MgCl2, 2 mM CaCl2, 5 mM NaHCO3, 20 mM HEPES, pH7.4) and the cells were incubated at 23° C. for 4 h. Emission from photoproteins in the cells was measured using a Mithras LB 940 plate luminometer. The ATP was injected at a given concentration to trigger an intracellular Ca^2+ response in the cells and the measurement started immediately. The bioluminescence was integrated over a time interval of 0.05 s for 30 s.

The nature of data set [1]: Thermostability: relative bioluminescence activity after 30 min incubation. The settings on record: CLZ-f. The class given is physicochemical. The method in brief:
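Purified photoprotein was reconstituted with CLZ-f and read for total counts with saturating calcium (50 mM Tris-HCl, 100 mM CaCl2, pH 7.5). It was then held at 30 to 40 °C for 30 min, re-equilibrated for 15 min and read again. Activity is 2nd/1st counts ×100.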

Data set [2] can be described thus: Ca2+ sensitivity curves of reconstituted photoproteins (L/Lmax vs free Ca2+). The class given is biochemical. Conditions: for EC50: redquorin series, CitA, GA, read-out: Calcium sensitivity, EC50; for Relative intensity at pCa 6.5 / Relative intensity at pCa 7.2: relative to Redq. The method in brief: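 Purified apoaequorin/redquorin mutants reconstituted overnight at 4 °C with 5 μM CLZ-f or native CLZ, then moved to zero-Ca2+ MOPS/KCl/EGTA buffer, pH 7.2. Luminescence in EGTA-buffered free-Ca2+ solutions, then saturating CaCl2 to obtain Lmax; EC50 from variable-slope sigmoidal fit of L/Lmax.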

B1: Redq/Q159T: aporedquorin (tdTomato-aequorin fusion) mutant Q159T (SEQ ID NO:22) (protein)
chain: MVSKGEEVIKEFMRFKVRMEGSMNGHEFEIEGEGEGRPYEGTQTAKLKVTKGGPLPFAWDILSPQFMYGSKAYVKHPADIPDYKKLSFPEGFKWERVMNFEDGGLVTVTQDSSLQDGTLIYKVKMRGTNFPPDGPVMQKKTMGWEASTERLYPRDGVLKGEIHQALKLKDGGHYLVEFKTIYMAKKPVQLPGYYYVDTKLDITSHNEDYTIVEQYERSEGRHHLFLGHGTGSTGSGSSGTASSEDNNMAVIKEFMRFKVRMEGSMNGHEFEIEGEGEGRPYEGTQTAKLKVTKGGPLPFAWDILSPQFMYGSKAYVKHPADIPDYKKLSFPEGFKWERVMNFEDGGLVTVTQDSSLQDGTLIYKVKMRGTNFPPDGPVMQKKTMGWEASTERLYPRDGVLKGEIHQALKLKDGGHYLVEFKTIYMAKKPVQLPGYYYVDTKLDITSHNEDYTIVEQYERSEGRHHLFLSGFDNPRWIGRHKHMFNFLDVNHNGKISLDEMVYKASDIVINNLGATPEQAKRHKDAVEAFFGGAGMKYGVETDWPAYIEGWKKLATDELEKYAKNEPTLIRIWGDALFDIVDKDQNGAITLDEWKAYTKAAGIIQSSEDCEETFRVCDIDESGTLDVDEMTRQHLGFWYTMDPACEKLYGGAVP
modifications: mutant aequorin
As for B1, the “[ATP] DL (detection limit)” value in the data set with endogenous P2Y2 receptor is 398 nM and 398 ± 17 nM. For the same molecule, the EC50 in the data set on endogenous P2Y2 receptor was 1700 nM; in data set [2] (CLZ-f), 296 ± 13 nM; in data set [2] (CLZ-native) it was 478 ± 39 nM. The “Thermostability, luminescence activity relative to wt-aequorin” value in data set [1] (30° C. for 30 min) came to 0.90; in data set [1] (40° C. for 30 min), 0.92. Moreover, the “Relative intensity at pCa 6.5” value in data set [2] (CLZ-f) turned out to be 11.0; in data set [2] (CLZ-f, listed as Redq/QT), 11; in data set [2] (CLZ-native), 13.0; in data set [2] (CLZ-native, listed as Redq/QT), 13. Moreover, the results for the “Relative intensity at pCa 7.2” value in data set [2] (CLZ-f) and in data set [2] (CLZ-native) were 2.8 and 7.1, respectively.

B2: Redq/Q159D: aporedquorin (tdTomato-aequorin fusion) mutant Q159D (SEQ ID NO:21) (protein)
chain: MVSKGEEVIKEFMRFKVRMEGSMNGHEFEIEGEGEGRPYEGTQTAKLKVTKGGPLPFAWDILSPQFMYGSKAYVKHPADIPDYKKLSFPEGFKWERVMNFEDGGLVTVTQDSSLQDGTLIYKVKMRGTNFPPDGPVMQKKTMGWEASTERLYPRDGVLKGEIHQALKLKDGGHYLVEFKTIYMAKKPVQLPGYYYVDTKLDITSHNEDYTIVEQYERSEGRHHLFLGHGTGSTGSGSSGTASSEDNNMAVIKEFMRFKVRMEGSMNGHEFEIEGEGEGRPYEGTQTAKLKVTKGGPLPFAWDILSPQFMYGSKAYVKHPADIPDYKKLSFPEGFKWERVMNFEDGGLVTVTQDSSLQDGTLIYKVKMRGTNFPPDGPVMQKKTMGWEASTERLYPRDGVLKGEIHQALKLKDGGHYLVEFKTIYMAKKPVQLPGYYYVDTKLDITSHNEDYTIVEQYERSEGRHHLFLSGFDNPRWIGRHKHMFNFLDVNHNGKISLDEMVYKASDIVINNLGATPEQAKRHKDAVEAFFGGAGMKYGVETDWPAYIEGWKKLATDELEKYAKNEPTLIRIWGDALFDIVDKDQNGAITLDEWKAYTKAAGIIQSSEDCEETFRVCDIDESGDLDVDEMTRQHLGFWYTMDPACEKLYGGAVP
modifications: mutant aequorin
As to B2, the “[ATP] DL (detection limit)” value in the data set with endogenous P2Y2 receptor was 417 ± 16 nM. Besides, the EC50 in the data set with endogenous P2Y2 receptor turned out to be 2300 ± 200 nM; in data set [2] (CLZ-f), 290 ± 18 nM; in data set [2] (CLZ-native), 680 ± 33 nM. Further, the entries for the “Thermostability, luminescence activity relative to wt-aequorin” value in data set [1] (30° C. for 30 min) and in data set [1] (40° C. for 30 min) were 0.91 and 0.95, respectively. The “Relative intensity at pCa 6.5” value in data set [2] (CLZ-f) was 23.9; in data set [2] (CLZ-native), 9.1. Besides, the results for the “Relative intensity at pCa 7.2” value in data set [2] (CLZ-f) and in data set [2] (CLZ-native) were 14.9 and 13.2, respectively.
